Assay results from the nanobody polyreactivity screen of Harvey et al. (2022).

Assay: yeast display, Sf9 membrane polyspecificity reagent, FACS + sequencing; frameworks hold sequencing errors
In short: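 Nanobodies came from a synthetic yeast display library in Saccharomyces cerevisiae BJ5465, induced with galactose for 36–48 hours and stained for 1 hour at 4 °C with 10% biotinylated, detergent-solubilized Sf9 membrane reagent. Cells were enriched on streptavidin microbeads and then FACS-sorted, with low and high (top ~1%) gates set on anti-HA fluorescence for expression and streptavidin fluorescence for reagent binding. Each polyreactivity label reflects the gate a clone came from. Genes were amplified by colony PCR, sequenced by MiSeq 2 × 250 and filtered by CDR length.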

Row | Sequence | polyreactivity (PSR sort gate)
1 | QVQLVESGGGLVQAGGSLRLSCAASGFIFKHYAMGWYRQAPGKERELVAAISRSTGRTNYADSVKGRFTISRDNAKNTDYLQMNSLKPEDTAVYYCAAYRYLRYDYWGQGTQVTVSS | high polyreactivity
2 | QVQLVESGGGLVQAGGSLRLSCAASGRIFKYYAMGWYRQAPGKERELVARISSSGGSTYYADSVKGRFTISRDNAKNTVYLQMNSLKPEDTAVYYCNARYYSTKYFLGDYWGQGTQVTVSS | high polyreactivity
3 | QLQLVESGGGLVQARGSLRLICADSGRIFTSYTMGWYRQAPGKERELVAAIDWSGGTTYYADSVKGPFTISRDNAKNTVYFQMISLKPEDTAVYYCSALYVIVGYYTYEYWGQGTQVTVSS | low polyreactivity
4 | QVQLVESGGGLVQAGGSLRLSCAASGSTSYDNSMGWNRKAPGKERELVAAITSDGGSTYYADSVKGRFTISRDKAKNTLYLQMNSLKPEDTAVYYCSADVVHQEWVYVYGGRDDYWGQGTQVTVSS | low polyreactivity
5 | QVQLVVSGGGLVQAGGSLRLSCAASGIIFSPYALGWYIQAPGKERELVAAISYSGGSTYYADSVKGRFTISRDNAKNTVYLQMNSLKPEDTAVYYCAVVYSYYLAVMGYWDYDYWGQGTQVTVSS | low polyreactivity
6 | QVQLVESGGGLVQAGGSLRLSCAASGFIFTYYAMGWYRPEHGKERDLVATINWSDGSTRYADSVKGRFTISRDNAKNTDYLQMNSLKPEDTAVYYCAKDWFNRPSVEMDYWGQGTQVTVSS | low polyreactivity
7 | QVQIVESGGGVVQAGGSLRLSCAASGLIFPAYTMGWYRQAPGKERELVAAISRSGGSTYYADSVKGRFTISRDNAKNTVSLQMNSLNPEDTAVYYCAAQGYFVDRAGRYYRGDYWGQGTQVTVSS | high polyreactivity
8 | QVQLVESGGGLVQAGGSLRLSCAASGFIFKWNAMGWYRQAPGKERELVAAITSGGGTYYADSVKGRFTISRDNAKNTVYLQMNSLKPEDTAVYYCAALGRYWPARRFDYWGQGTQVTVSS | high polyreactivity
9 | QVQLVESGGGLVQAGGSLRLSCAASGRIFSYYAMGWYRQAPGKERELVAAISRTGGRTYYADSVKGRFTISRDNAKNTVYLQKNSLKPEDTAVYYCNVVGRRYWHWDQALDYWGQGTQVTVSS | high polyreactivity
10 | QVQLVESGGGLVQAGGSLRLSCAASGFTFTVYAMGWYRQAPGKERELVAAISGIGGSTYYADSVKGRFTISRDNAKNTVYLQMNSLKPEDTAVYYCNAVSGDSGDYWGQGTQVTVSS | low polyreactivity
11 | QVQLVESGGGLVQAGGSLRLSCAASGFTFAQYTMGWYRQAPGKERELVAAIRVGGGSTYYADSVKGRFTISRDNAKNTVYLQMNSLKPEDTAVYYCAKRTYSRKFRGAYNYWGQGTQVTVSS | high polyreactivity
12 | QVQLVESGGGLVQAGGSLRLSCAASGSIFVYNDKGWYRQAPGKERELVADISSGGTTDYADSVKGRFTISRDNAKNTVYLQMNSLKPEDTAVYYCAAESYIEYYLKYDYWGQGTQVTVSS | low polyreactivity
13 | QVQLVESGGGLVQAGGSLRLSCAASGSTFSTNALGWYREAPGKELELVDDISSSSGRTYYADSVKGRFTISRDNAKNTVYLQMNSLKPEDTAVYYCAAANQGYRSGRKGVQRFDYWGQGTQVTVSS | high polyreactivity
14 | QVQLVESGGGLVQAGGSLRLSCAASGSTFSENAMGWYRQAPGKERELVAAISWGGGSTYYADSVKGRFTISRDNAKNTVYLQMNSLKPEDTAVYYCIADVFDDYGYFESDYWGQGTQVTVSS | low polyreactivity
15 | QVQLVESGGGLVQAGGSLRLSCAASGRIFVRYAMGWYRQAPGKERELVAGITSGSRTNYADSVKGRFTISRDNAKNTVYLQMNSLKPEDTAVYYCNARVFRYYGIFDYWGQGTQVTVSS | high polyreactivity
16 | QVQLVESGGGLVQPGGSLRLSCAASGFTFYTYAMGWYRQAPGKERELVATISSGGRTNYADSVKGRFTISRDNAKNTVYLQKNSLKPEDTAVYYCNIRLRGGAVRFDSWGQGTQVTVSS | low polyreactivity
17 | QVQLVESGGGLVQAGGSLRLSCAPSGSTFTYNAMGWYRQAPGKERELVASISSGTTTYYADSVKGRFTISRDNAKNTVYLQMNSLKPEDTAVYYCAVDSWSRVQGWLAHNYDYWGQGTQVTVSS | low polyreactivity
18 | QVQLVDSGGGLVQAGGSLRLSCAASGSIFLAYAMGWYRQAPGKEREFVAAISFSDGSTYYADSVKGRFTISRDNAKNTVYLQMNSLKPEDTAVYYCNKGASPDDYDFWGQGTQVTVSS | low polyreactivity
19 | QVQLVESGGGLVQAGGSLRLICAASGFIFRRYDMGWYRQAPGKERELVATITASVGSTNYADSVKGRFTISRDNAKNTVYLQMNSLKPEDTAVYYCATDIIGAIRVWDHTRMDYWGQGTQVTVSS | low polyreactivity
20 | QVQLVESGGGLVQAGGSLRLSCAASGSTFPYAMGWYTQAPGKEREFVAAITRSGGSTYYADSVKGRFTISRDNAKNTVYLQMNSLKPEDTAVYYATQRCVWGYHYWGQGTQVTVSS | high polyreactivity
21 | QVQLVESGGGLVHAGGSLRLSCAASGYTFRYYAKGWYRQAPGKERELVAAINSGDITNYADSVKGRFTITRDNAKTTVYLQMNSLKPEDTAVYFCARSTFSLYDYWGQGTQVTVSS | low polyreactivity
22 | QVQLVESGGGLVQAGGSLRLSCAASGRIFNFYAMGWYRQAPGKEWELVAAITNGGGTKYADSVKGRFTISRDNAKNTVYLQMNSLKPEDTAVYYCAARYYRRQRGQTSHSRFGYWGQGTQVTVSS | high polyreactivity

Row | Sequence | polyreactivity (PSR sort gate)
23 | QVQLVESGGGLVQAGGSLRLTCAASGFTFAGYAMGWYRQGPGKERELVAVITSSDSTYYADSVKGRFTISRDNAKNTVYLQMNSLKPEDTAVYYCNAADERSQGWVGYDHWGQCTQVTVSS | low polyreactivity
24 | QVQLQESGGGLVQAGGSLRLSCAASSNNSTLDVMGWYRQAPGKEREFVASIGSGGITNYADSVKGRFTISRDNAKNTVYLQMNSLKPEDTAVYYCAVLNQAYTDLIYWGQGTLVTVSS | high polyreactivity
25 | QVQLVESGGGLLQAGGSLRLSCAASGYTFWLYAMGWYRQAPGKDRELVATISRRAGTTYYADSVKGRFTISRDNAKNTVYLQMNSLKPEDTAVYYCAKKSHSLLGQYGEDYDYWGQGTQVTVSS | low polyreactivity
26 | QVQLVESGGCLVQAGGSLRLSCAASGITFVSNVMGWYRQATGKEREFVAAITGRGDTTYADSVKGRFTISRDNAKNTVYLQMNSLKPEDTAVYYCAAEYSVPYRGWDGYEYWGQGTQVTVSS | low polyreactivity
27 | QVQLVESGRALVQAGGSLRLSCAASGFTFWTNTMGWYIQAPGKERELVAAITSTGGTTYYADSVKGRFTISRDNAKNTVYLQMNSLKAEDTAVYYCAAELGGYVASYYYPGYDYWGQGTQVTVSS | low polyreactivity
28 | QVQLVESGGGLVQAGGSLRISCAASGSTFEDNAMGWYRQAPGKERELVAAITSGGNTYYADSVKGRFTISRDNSKNTVYLQMNSLKPEDTAVYYCNAVPFYYDFDYWGQGTQVTVSS | low polyreactivity
29 | QVQLVESGGGLVQAGGSLRLSCAASGSIFIYNAMGWYRQAPGKERELVAAISSSGGSTYYADSVKGRFTISRDNAKNTVYLQMNSLKPEDTAVYYCAARTYYVRVLGGRPGMDYWGQGTQVTVSS | low polyreactivity
30 | QVQLVESGVGLVQAGGRLRLSCAASGSIFYYYAMGWYRQAPGKERELVAAISGTGGSTYYADSVKGRFTISRDNAKITFYLQMNSLKPEDTAVYYCAASFYIERHRYIYWGQGTQVTVSS | high polyreactivity
31 | QVQLVESGGGLVQAGGSLRLSCAASGNTFWYNAMGWYRQSPGKERELVAAISYSGGGTYYADSVKGRFTISRDNAKNTVYLQMNSLKPEDTAVYYCAADTLQRAFVLNDYWGQGTQVTVSS | low polyreactivity
32 | QVQLVESGGGLVQAGGSLRLSCAASGGILRGYAMGWYRQAPGKERELVAAISRGGRTNYADSVKGRFTISRDNAKNTVYLQMNSLKPEDTAVYYCTALSAFQVDNYDYWGQGTQVTVSS | high polyreactivity
33 | QVQLVESGGGLVQAGGSLRLSCAASGFIFGYNAMGWYRQAPGKERELVATISWSGGSTYYADSVKGRFTISRDNAKNTVYFQMNSLKPEDTAVYYCAAEGWERLGCVSWVTVDYWGQGTQVTVSS | low polyreactivity
34 | QVQLVESGGGLVQAGGSLRLSCAASGLTFARNAMGWYRQAPGKERELVAAISSGGSTYYADSVKGRFTISRDNAKNPVYLQMNSLKPEDTAVYYCAARPIPRYYGKFWRVDYWGQGTQVTVSS | high polyreactivity
35 | QVQIEESGGGLVQAGGSLRLSCAASGFIFRPYAMGWYRQAPGKERELVAAITGGGSTYYADSVKGRFTISRDNAKNTVYLQMISLKPEDTAVYYCNADRRRRSGGFAGWHFQRNDYWGQGTQVTVSS | low polyreactivity
36 | QVQLVESGGGLVQAGGSLRLSCAASGRTFWYYAMGWYREAPGKERELVAAITRGGRTNYADSVKGRFTISRDNAKNTVYLQMKSLKPEDTAVYYCAADYRYPAHSYGYWGQGTLVTVSS | high polyreactivity
37 | QVQLVESGGGLVQAGGSLRVSCAASGNTFGPYAMGWYRQAPGKERELVAAISSGGSTNYADSVKGRFTISRDNAKNTVYLQMNSLKPEDTAVYYCARDAFSGSDFSYASIEYDYWGQGTQVTVSS | low polyreactivity
38 | QVQLVESGGGLVQAGGSLRLSCAASGRIFWVYAMGWSRQAPGKERERVAAITWRGVSTYFADSVKGRFTISRDNAKNTVYLQMNSLKPEDTAVYYCAVSLYGYSGNYGPYWYDYWGQGTQVTVSS | low polyreactivity
39 | QVQLVESGGCLVQAGGSLRLSCAASGSIFDRYAMGWYRQAPGKERGLVAAISSSGGSTYYADSVKGRFTISRDNAKNTVYLQMNSLKPEDTAVYYCAAEYYASPYYWSYDYWGQGTQVTVSS | high polyreactivity
40 | QVQLVESGGGLVQAGGSLRLSCPDSVRIFYYNTMGWYRQAPGKERQLVAAISAGGGRTYYADSVKGRFTISRDNAKNTVYFQMNRLKPEDTAVYYCAARKRAQQGTRDHDYWGQGSQVTVSS | high polyreactivity
41 | QVQLVESGGGLVQAGGSLRLSCAASGSIFYNNAMGWYRQAPGKERELVAAISGSGDSTYYADSVKGRFTISRDNAKNSVYLQMNSLKPEDTAVYYCNATPYVLWWSDMDYWGQGTQVTVSS | high polyreactivity
42 | QVQLVESGGGLVQAGGSLRLSCAASGRIFCSYTMGWYRQAPGKERELVAAISWRGGSTYYADSVKGRFTISRDNAKNTVYLQMNSLKPEDTAVYYCAADSRSPPGDYWGQGTQVTVSS | low polyreactivity
43 | QGQLVESGGGLVQAGVTLRLSCAASGITFPWYAMGWYRQAPGKERELVASITSGGSTNYADSVKGRFTISRDNSKNTVYLQMNSLKPEDTAVSYCARDWYSPVYWAAGYDAWGSGYDYWGQGTQVTVSS | high polyreactivity
